# Results from patent US20240018260A1 (AMUNIX PHARMACEUTICALS, published 2024).
# Target: T1, human EpCAM on EpCAM positive human carcinoma cells (SW480, SK-OV-3) (human, UniProt P16422 24-314)
# T1 sequence (looked up): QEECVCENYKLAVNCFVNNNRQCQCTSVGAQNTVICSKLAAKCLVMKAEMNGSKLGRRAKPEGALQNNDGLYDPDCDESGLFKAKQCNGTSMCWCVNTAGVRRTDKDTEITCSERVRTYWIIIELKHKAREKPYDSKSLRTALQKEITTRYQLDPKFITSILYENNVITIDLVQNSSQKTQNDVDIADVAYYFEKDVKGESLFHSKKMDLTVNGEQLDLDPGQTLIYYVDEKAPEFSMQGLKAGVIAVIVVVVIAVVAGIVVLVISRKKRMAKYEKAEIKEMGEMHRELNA
# Experiment: cell-based or functional assay
row,Binder,"EC50, LDH release cytotoxicity, PBMC:SW480 5:1 [nM]"
1,"AC1278 His(8)-aEpCAM-aCD3-BSRS1-XTEN_AE864, protease-untreated (intact) anti-EpCAM×anti-CD3 ProTIA (bispecific antibody) HHHHHHHHELVMTQSPSSLTVTAGEKVTMSCKSSQSLLNSGNQKNYLTWYQQKPGQPPKLLIYWASTRESGVPDRFTGSGSGTDFTLTISSVQAEDLAVYYCQNDYSYPLTFGAGTKLEIKGGGGSGGGGSGGGGSEVQLLEQSGAELVRPGTSVKISCKASGYAFTNYWLGWVKQRPGHGLEWIGDIFPGSGNIHYNEKFKGKATLTADKSSSTAYMQLSSLTFEDSAVYFCARLRNWDEPMDYWGQGTTVTVSSGGGGSDVQLVQSGAEVKKPGASVKVSCKASGYTFTRYTMHWVRQAPGQGLEWIGYINPSRGYTNYADSVKGRFTITTDKSTSTAYMELSSLRSEDTATYYCARYYDDHYCLDYWGQGTTVTVSSGEGTSTGSGGSGGSGGADDIVLTQSPATLSLSPGERATLSCRASQSVSYMNWYQQKPGKAPKRWIYDTSKVASGVPARFSGSGSGTDYSLTINSLEAEDAATYYCQQWSSNPLTFGGGTKVEIKGTAEAASASGLSGRSDNHSPLGLAGSPGSPAGSPTSTEEGTSESATPESGPGTSTEPSEGSAPGSPAGSPTSTEEGTSTEPSEGSAPGTSTEPSEGSAPGTSESATPESGPGSEPATSGSETPGSEPATSGSETPGSPAGSPTSTEEGTSESATPESGPGTSTEPSEGSAPGTSTEPSEGSAPGSPAGSPTSTEEGTSTEPSEGSAPGTSTEPSEGSAPGTSESATPESGPGTSTEPSEGSAPGTSESATPESGPGSEPATSGSETPGTSTEPSEGSAPGTSTEPSEGSAPGTSESATPESGPGTSESATPESGPGSPAGSPTSTEEGTSESATPESGPGSEPATSGSETPGTSESATPESGPGTSTEPSEGSAPGTSTEPSEGSAPGTSTEPSEGSAPGTSTEPSEGSAPGTSTEPSEGSAPGTSTEPSEGSAPGSPAGSPTSTEEGTSTEPSEGSAPGTSESATPESGPGSEPATSGSETPGTSESATPESGPGSEPATSGSETPGTSESATPESGPGTSTEPSEGSAPGTSESATPESGPGSPAGSPTSTEEGSPAGSPTSTEEGSPAGSPTSTEEGTSESATPESGPGTSTEPSEGSAPGTSESATPESGPGSEPATSGSETPGTSESATPESGPGSEPATSGSETPGTSESATPESGPGTSTEPSEGSAPGSPAGSPTSTEEGTSESATPESGPGSEPATSGSETPGTSESATPESGPGSPAGSPTSTEEGSPAGSPTSTEEGTSTEPSEGSAPGTSESATPESGPGTSESATPESGPGTSESATPESGPGSEPATSGSETPGSEPATSGSETPGSPAGSPTSTEEGTSTEPSEGSAPGTSTEPSEGSAPGSEPATSGSETPGTSESATPESGPGTSTEPSEGSAPG",0.288
2,"Protease-treated (MMP-9 cleaved) AC1278, His(8)-aEpCAM-aCD3 cleaved fragment (bispecific antibody) HHHHHHHHELVMTQSPSSLTVTAGEKVTMSCKSSQSLLNSGNQKNYLTWYQQKPGQPPKLLIYWASTRESGVPDRFTGSGSGTDFTLTISSVQAEDLAVYYCQNDYSYPLTFGAGTKLEIKGGGGSGGGGSGGGGSEVQLLEQSGAELVRPGTSVKISCKASGYAFTNYWLGWVKQRPGHGLEWIGDIFPGSGNIHYNEKFKGKATLTADKSSSTAYMQLSSLTFEDSAVYFCARLRNWDEPMDYWGQGTTVTVSSGGGGSDVQLVQSGAEVKKPGASVKVSCKASGYTFTRYTMHWVRQAPGQGLEWIGYINPSRGYTNYADSVKGRFTITTDKSTSTAYMELSSLRSEDTATYYCARYYDDHYCLDYWGQGTTVTVSSGEGTSTGSGGSGGSGGADDIVLTQSPATLSLSPGERATLSCRASQSVSYMNWYQQKPGKAPKRWIYDTSKVASGVPARFSGSGSGTDYSLTINSLEAEDAATYYCQQWSSNPLTFGGGTKVEIKGTAEAASASGLSGRSDNHSPLG",0.0089
3,"AC1357, non-cleavable anti-EpCAM×anti-CD3 ProTIA without the release segment (bispecific antibody) HHHHHHHHELVMTQSPSSLTVTAGEKVTMSCKSSQSLLNSGNQKNYLTWYQQKPGQPPKLLIYWASTRESGVPDRFTGSGSGTDFTLTISSVQAEDLAVYYCQNDYSYPLTFGAGTKLEIKGGGGSGGGGSGGGGSEVQLLEQSGAELVRPGTSVKISCKASGYAFTNYWLGWVKQRPGHGLEWIGDIFPGSGNIHYNEKFKGKATLTADKSSSTAYMQLSSLTFEDSAVYFCARLRNWDEPMDYWGQGTTVTVSSGGGGSDVQLVQSGAEVKKPGASVKVSCKASGYTFTRYTMHWVRQAPGQGLEWIGYINPSRGYTNYADSVKGRFTITTDKSTSTAYMELSSLRSEDTATYYCARYYDDHYCLDYWGQGTTVTVSSGEGTSTGSGGSGGSGGADDIVLTQSPATLSLSPGERATLSCRASQSVSYMNWYQQKPGKAPKRWIYDTSKVASGVPARFSGSGSGTDYSLTINSLEAEDAATYYCQQWSSNPLTFGGGTKVEIKGSPGSPAGSPTSTEEGTSESATPESGPGTSTEPSEGSAPGSPAGSPTSTEEGTSTEPSEGSAPGTSTEPSEGSAPGTSESATPESGPGSEPATSGSETPGSEPATSGSETPGSPAGSPTSTEEGTSESATPESGPGTSTEPSEGSAPGTSTEPSEGSAPGSPAGSPTSTEEGTSTEPSEGSAPGTSTEPSEGSAPGTSESATPESGPGTSTEPSEGSAPGTSESATPESGPGSEPATSGSETPGTSTEPSEGSAPGTSTEPSEGSAPGTSESATPESGPGTSESATPESGPGSPAGSPTSTEEGTSESATPESGPGSEPATSGSETPGTSESATPESGPGTSTEPSEGSAPGTSTEPSEGSAPGTSTEPSEGSAPGTSTEPSEGSAPGTSTEPSEGSAPGTSTEPSEGSAPGSPAGSPTSTEEGTSTEPSEGSAPGTSESATPESGPGSEPATSGSETPGTSESATPESGPGSEPATSGSETPGTSESATPESGPGTSTEPSEGSAPGTSESATPESGPGSPAGSPTSTEEGSPAGSPTSTEEGSPAGSPTSTEEGTSESATPESGPGTSTEPSEGSAPGTSESATPESGPGSEPATSGSETPGTSESATPESGPGSEPATSGSETPGTSESATPESGPGTSTEPSEGSAPGSPAGSPTSTEEGTSESATPESGPGSEPATSGSETPGTSESATPESGPGSPAGSPTSTEEGSPAGSPTSTEEGTSTEPSEGSAPGTSESATPESGPGTSESATPESGPGTSESATPESGPGSEPATSGSETPGSEPATSGSETPGSPAGSPTSTEEGTSTEPSEGSAPGTSTEPSEGSAPGSEPATSGSETPGTSESATPESGPGTSTEPSEGSAPG",3.3
